Measurements: patent US20210087286A1 (Amgen, published 2021)
Where a chain is given by its changes, count along the chain named.

T1: human GIPR (human, UniProt P48546 22-466)
T1 sequence: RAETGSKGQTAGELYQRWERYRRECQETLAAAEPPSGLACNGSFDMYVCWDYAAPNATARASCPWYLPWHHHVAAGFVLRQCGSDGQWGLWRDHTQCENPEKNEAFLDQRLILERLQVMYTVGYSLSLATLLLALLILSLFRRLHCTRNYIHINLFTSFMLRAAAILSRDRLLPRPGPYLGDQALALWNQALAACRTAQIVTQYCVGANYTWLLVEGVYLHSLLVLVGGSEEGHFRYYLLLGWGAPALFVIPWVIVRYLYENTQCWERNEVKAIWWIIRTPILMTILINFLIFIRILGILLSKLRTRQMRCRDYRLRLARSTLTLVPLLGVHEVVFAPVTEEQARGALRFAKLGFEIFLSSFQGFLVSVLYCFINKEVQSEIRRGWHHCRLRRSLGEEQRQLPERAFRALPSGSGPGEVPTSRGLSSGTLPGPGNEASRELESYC

T2: murine GIPR (murine, UniProt Q0P543 19-460, limits assumed)
T2 sequence: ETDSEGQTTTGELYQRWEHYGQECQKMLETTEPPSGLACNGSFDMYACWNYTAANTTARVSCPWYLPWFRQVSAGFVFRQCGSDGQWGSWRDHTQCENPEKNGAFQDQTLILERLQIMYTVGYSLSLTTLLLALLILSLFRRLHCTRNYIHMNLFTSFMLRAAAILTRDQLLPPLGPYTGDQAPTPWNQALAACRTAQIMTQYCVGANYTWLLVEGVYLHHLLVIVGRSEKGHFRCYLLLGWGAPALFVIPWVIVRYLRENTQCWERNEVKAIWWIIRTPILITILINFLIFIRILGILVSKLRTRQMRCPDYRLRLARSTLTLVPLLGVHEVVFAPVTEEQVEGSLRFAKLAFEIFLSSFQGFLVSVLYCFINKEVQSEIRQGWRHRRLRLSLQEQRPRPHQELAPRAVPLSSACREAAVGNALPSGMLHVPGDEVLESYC

T3: huGIPR ECD (human, UniProt P48546 21-129, limits assumed)
T3 construct: Soluble analyte of the Biacore assay; also called human GIPR extracellular domain
T3 sequence: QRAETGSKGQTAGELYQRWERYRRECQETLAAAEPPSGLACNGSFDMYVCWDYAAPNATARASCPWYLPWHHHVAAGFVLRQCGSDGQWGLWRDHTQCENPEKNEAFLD

B1: 2G10.348 (antibody, human IgG1, kappa, N297G, V domains shown)
VH: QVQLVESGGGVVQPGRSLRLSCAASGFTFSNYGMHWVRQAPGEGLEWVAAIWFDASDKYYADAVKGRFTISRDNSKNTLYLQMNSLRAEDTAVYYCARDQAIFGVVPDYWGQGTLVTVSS
VL: EIVMTQSPATLSVSPGERATLSCRASQSVSSNLAWYQQKPGQAPRLLIYGAATRATGIPARFSGSGSGTEFTLTISSLQSEDFAVYYCQQYNNWPLTFGGGTKVEIKR
B2: iPS:529400 (antibody, human IgG1, kappa, N297G, V domains shown)
VH: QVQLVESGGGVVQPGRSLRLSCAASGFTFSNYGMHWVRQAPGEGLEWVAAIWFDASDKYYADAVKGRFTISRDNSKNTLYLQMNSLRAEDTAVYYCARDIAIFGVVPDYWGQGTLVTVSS
VL: B1 VL with M4L, V13L, A60D, S77R, Q79E, S80P
B3: iPS:529404 (antibody, human IgG1, kappa, N297G, V domains shown)
VH: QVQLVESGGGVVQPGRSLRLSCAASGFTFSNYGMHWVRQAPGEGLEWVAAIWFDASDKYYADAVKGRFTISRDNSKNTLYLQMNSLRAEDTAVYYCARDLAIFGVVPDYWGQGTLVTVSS
VL: B1 VL with M4L, V13L, S30N, S31L, G50Q, A60D, S77R, Q79E, S80P, N93Q
B4: iPS:529399 (antibody, human IgG1, kappa, N297G, V domains shown)
VH: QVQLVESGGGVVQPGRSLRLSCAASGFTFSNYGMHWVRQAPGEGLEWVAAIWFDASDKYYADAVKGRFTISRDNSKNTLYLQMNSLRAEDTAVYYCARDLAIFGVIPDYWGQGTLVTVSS
VL: B1 VL with M4L, V13L, S31E, N32H, G50E, A60D, S77R, Q79E, S80P, N92Q
B5: iPS:529405 (antibody, human IgG1, kappa, N297G, V domains shown)
VH: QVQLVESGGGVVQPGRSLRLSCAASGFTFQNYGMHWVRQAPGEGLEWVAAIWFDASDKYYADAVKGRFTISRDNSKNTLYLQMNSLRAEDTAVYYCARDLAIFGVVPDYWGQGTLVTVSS
VL: B1 VL with M4L, V13L, S30F, N32H, G50E, A60D, S77R, Q79E, S80P, N92Q
B6: iPS:529403 (antibody, human IgG1, kappa, N297G, V domains shown)
VH: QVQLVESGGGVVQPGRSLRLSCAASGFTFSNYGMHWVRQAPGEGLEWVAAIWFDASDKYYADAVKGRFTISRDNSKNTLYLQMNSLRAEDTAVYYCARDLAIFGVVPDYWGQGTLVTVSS
VL: EIVLTQSPATLSLSPGERATLSCRASQSVDLHLAWYQQKPGQAPRLLIYEAATRATGIPDRFSGSGSGTEFTLTISRLEPEDFAVYYCQQYQNWPLTFGGGTKVEIKR

What was measured:
human GIPR [1] = molecular target: T1, human GIPR; assay: cell-based or functional assay
murine GIPR = molecular target: T2, murine GIPR; assay: cell-based or functional assay
human GIPR [2] = molecular target: T1, human GIPR; assay: cell-based or functional assay; remark: listed apart in the source
huGIPR ECD = molecular target: T3, huGIPR ECD; assay: SPR (Biacore T200), mAb captured via goat anti-huFc, 200 nM huGIPR ECD analyte
Experimental: Immobilization of Goat-anti-huFc antibody to a S-CM5 sensor chip surface was performed according to manufacturer's instructions. The Biacore instrument running buffer is 0.005% P20/PBS 1×, pH7.4, no calcium chloride, no magnesium chloride. Briefly, carboxyl groups on the sensor chip surfaces were activated by injecting 60 μL of a mixture containing 0.2 M N-ethyl-N′-(dimethylaminopropyl) carbodiimide (EDC) and 0.05 M N-hydroxysuccinimide (NHS). Goat-anti-huFc antibody was diluted in 10 mM sodium acetate, pH 4.0 at 20 μg/ml and injected over the activated chip surface at 30 uL/min for 6 minutes. Excess reactive groups on the surfaces were deactivated by injecting 60 μL of 1 M ethanolamine. Final immobilized level was ˜8000 resonance units (RU).
Binding assays were carried out on the immobilized goat anti-huFc antibody surface by Biacore T200. The experiment was performed at 25° C. The instrument running buffer was 0.005% P20/PBS. The goat anti-huFc capture antibody was covalently attached to the sensor chip surface via standard amine coupling to flow cells channel 1-4. The anti-huGIPR antibodies were diluted in sample buffer (0.1 mg/ml BSA, 0.005% P20, PBS) to ˜10 nM then captured to flow cells channel 2, 3, 4. Flow cell channel 1 was as a blank reference surface without injection of anti-huGIPR antibody. The captured antibody response range was ˜250 RU. Then 200 nM huGIPR ECD was injected over the goat anti-huFc antibody captured anti-huGIPR antibody surfaces at flow rate 50 ul/min for 3 minutes. After a 10 minutes dissociation, each surface was regenerated by injecting 10 mM Glycine, pH 1.5 for 30 seconds twice.

Binder | cAMP IC50 (human GIPR [1]) [nM] | murine cAMP (murine GIPR) [nM] | human cAMP IC50 (human GIPR [2]) [nM] | koff (huGIPR ECD) [s⁻¹]
B1 | 42.8 | 14600 | 53 | 0.0006
B2 |  | 79.5 | 36.6 | 
B3 |  | 3.9 | 27.8 | 
B4 |  | 12.9 | 39.3 | 
B5 |  | 6.1 | 22.7 | 
B6 |  | 12 | 33.9 | 
